Target: T1, biotinylated anti-ABD goat antibody
T1 construct: also called Anti-ABD surface
Assay: SPR (Biacore 2000), periplasm diluted 15x over anti-ABD surface
Text: SPR analysis of periplasmic samples: A selection of Aβ peptide binding polypeptides was subjected to an analysis of the response against biotinylated hAβ₁₋₄₀ using a Biacore 2000 instrument (GE Healthcare). Biotinylated anti-ABD goat antibody (produced in-house) and N-terminally biotinylated hAβ₁₋₄₀ (AnaSpec cat. no. AS-24648) were immobilized in separate flow cells on a streptavidin coated chip (Biacore Sensor Chip SA, cat. no. BR100032) using HBS-EP as running buffer (0.01 M HEPES pH 7.4, 0.15 M NaCl, 3 mM EDTA, 0.005% v/v Surfactant P20, GE Healthcare, cat. no. BR100188). The ligand immobilization levels on the surfaces were approximately 2000 RU for the anti-ABD antibody and 225 RU for hAβ₁₋₄₀. One flow cell surface on the chip was used as blank during analyte injections. HBS-EP was used as running buffer and the flow rate was 25 μl/min. The analytes, i.e. periplasmic preparations of Aβ peptide binding polypeptides as described above, were each diluted 15× in HBS-EP buffer and injected for 10 min, followed by dissociation in running buffer for 5 min. After dissociation, the surfaces were regenerated with 2 pulses of 10 mM glycin pH 2.0. […]
SPR analysis of periplasmic samples: The interactions of a subset of Z variants with anti-ABD goat antibody and hAβ₁₋₄₀ were analyzed in a Biacore instrument by injecting dilutions of periplasmic samples.

Response RU: 19.8 RU
B1: ABD (albumin binding domain GA3 from streptococcal Protein G), periplasm control (other)
chain: LAEAKVLANRELDKYGVSDYYKNLINNAKTVEGVKALIDEILAALP
notes: periplasm containing ABD only; also called negative control
